The record followed here is patent US20040002127A1 (CHISSO, published 2004).

The test deals with T1, 35 kDa protein of Oplophorus luciferase (native, purified from Oplophorus gracilirostris) (Oplophorus gracilirostris, UniProt Q9GV46 40-359).
T1 sequence: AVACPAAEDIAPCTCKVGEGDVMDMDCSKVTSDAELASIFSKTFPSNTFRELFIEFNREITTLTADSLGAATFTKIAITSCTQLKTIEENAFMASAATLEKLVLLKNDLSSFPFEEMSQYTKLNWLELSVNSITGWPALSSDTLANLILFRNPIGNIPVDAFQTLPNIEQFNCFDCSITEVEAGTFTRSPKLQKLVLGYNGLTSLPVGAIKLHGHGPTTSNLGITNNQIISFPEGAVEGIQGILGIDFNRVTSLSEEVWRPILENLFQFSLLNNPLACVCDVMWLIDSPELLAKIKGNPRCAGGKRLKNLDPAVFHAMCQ
Briefly: gel filtration of native luciferase (about 106 kDa) against SDS-PAGE and SDS gel filtration HPLC (35 kDa and 19 kDa components). Here is the method:
The deep-sea luminous shrimp (Oplophorus gracilirostris) obtained in the Suruga Bay, Shizuoka, Japan were used as a starting material. A crude extract containing Oplophorus luciferase was prepared in the same manner as disclosed by Shimomura, et al., in Biochemistry 17 (1978) and further purified by chromatography in two steps. The first step was by hydrophobic interaction chromatography on a column of butyl Sepharose 4 Fast Flow (Pharmacia; 0.7 cm×3.5 cm) using 20 mM Tris-HCl, pH 8.5, eluting with decreasing concentrations of ammonium sulfate starting at 1.5 M. The second step was by gel filtration on a column of Superdex 200 Prep (Pharmacia; 1 cm×48 cm) in 20 mM Tris-HCl, pH 8.5, containing 50 mM NaCl. The molecular weight of Oplophorus luciferase was estimated to be about 106 kDa by gel filtration on the same column when compared with the molecular weight markers as follows: (a) amylase (200 kDa); (b) alcohol dehydrogenase (150 kDa); (c) bovine serum albumin (67 kDa); (d) ovalbumin (45 kDa); (e) carbonic anhydrase (29 kDa); and (f) ribonuclease (13.7 kDa).
SDS-PAGE analysis (12% polyacrylamide gel) of the purified samples gave two major protein bands corresponding to molecular weights of 35 kDa and 19 kDa, respectively. […]
On the technique in general: Size exclusion chromatography separates by hydrodynamic size, large species first.

B1: 19 kDa protein of Oplophorus luciferase (native, purified from Oplophorus gracilirostris) (enzyme)
chain: FTLADFVGDWQQTAGYNQDQVLEQGGLSSLFQALGVSVTPIQKVVLSGENGLKADIHVIIPYEGLSGFQMGLIEMIFKVVYPVDDHHFKIILHYGTLVIDGVTPNMIDYFGRPYPGIAVFDGKQITVTGTLWNGNKIYDERLINPDGSLLFRVTINGVTGWRLCENILA
notes: also called 19 kDa photoprotein
Take B1: the binding result was “binds”.
